Data from patent publication US20150299281A1 (ZEALAND PHARMA A S, published 2015).
Numbered stars: 1 amine (or outer) side, 2 acyl side, 3 side chain; on linkers, the order of the positions; unused ones are H or OH. Square brackets hold non-standard residues; d marks the D form. Side chains are listed from the residue outwards. * marks the point of attachment. γGlu = O=C(O)[C@H](CCC(=O)[*:2])N[*:1]; Palmitoyl = CCCCCCCCCCCCCCCC(=O)*; Aib = CC(C)(N)C(=O)O

T1: human GIP receptor (human, UniProt P48546 22-466)
T1 sequence (looked up): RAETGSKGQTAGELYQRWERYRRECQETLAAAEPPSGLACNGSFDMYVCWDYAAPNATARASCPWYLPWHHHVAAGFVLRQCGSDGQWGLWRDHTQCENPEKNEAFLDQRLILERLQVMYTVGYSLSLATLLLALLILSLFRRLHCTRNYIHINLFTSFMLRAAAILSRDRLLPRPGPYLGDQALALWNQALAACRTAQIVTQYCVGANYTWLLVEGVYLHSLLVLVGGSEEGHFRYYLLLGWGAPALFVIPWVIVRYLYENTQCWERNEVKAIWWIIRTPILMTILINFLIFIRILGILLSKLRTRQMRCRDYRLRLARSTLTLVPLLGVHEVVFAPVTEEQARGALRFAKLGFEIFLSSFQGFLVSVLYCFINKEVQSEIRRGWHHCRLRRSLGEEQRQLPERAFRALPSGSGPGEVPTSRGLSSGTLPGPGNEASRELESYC


Tests used:
[1] = target: T1, human GIP receptor; experiment: cell-based or functional assay
[2] = target: human GLP-1 receptor (human, UniProt P43220 24-463); experiment: cell-based or functional assay

Binder	EC50, cAMP induction in HEK293 cells expressing human GIP R [1]	EC50, cAMP induction in HEK293 cells expressing human GLP-1 R [2]
H-Y[Aib]EGTFTSDYSIYLDSKAAHDFVEWLLRA-NH2 (SMILES CC[C@H](C)[C@H](NC(=O)[C@H](CO)NC(=O)[C@H](Cc1ccc(O)cc1)NC(=O)[C@H](CC(=O)O)NC(=O)[C@H](CO)NC(=O)[C@@H](NC(=O)[C@H](Cc1ccccc1)NC(=O)[C@@H](NC(=O)CNC(=O)[C@H](CCC(=O)O)NC(=O)C(C)(C)NC(=O)[C@@H](N)Cc1ccc(O)cc1)[C@@H](C)O)[C@@H](C)O)C(=O)N[C@@H](Cc1ccc(O)cc1)C(=O)N[C@@H](CC(C)C)C(=O)N[C@@H](CC(=O)O)C(=O)N[C@@H](CO)C(=O)N[C@@H](CCCCN)C(=O)N[C@@H](C)C(=O)N[C@@H](C)C(=O)N[C@@H](Cc1c[nH]cn1)C(=O)N[C@@H](CC(=O)O)C(=O)N[C@@H](Cc1ccccc1)C(=O)N[C@H](C(=O)N[C@@H](CCC(=O)O)C(=O)N[C@@H](Cc1c[nH]c2ccccc12)C(=O)N[C@@H](CC(C)C)C(=O)N[C@@H](CC(C)C)C(=O)N[C@@H](CCCNC(=N)N)C(=O)N[C@@H](C)C(N)=O)C(C)C) [Compound 44]	0.016 nM	0.013 nM
H-Y[Aib]EGTFTSDYSIYLDKKAAHDFVEWLLSA-NH2 (SMILES CC[C@H](C)[C@H](NC(=O)[C@H](CO)NC(=O)[C@H](Cc1ccc(O)cc1)NC(=O)[C@H](CC(=O)O)NC(=O)[C@H](CO)NC(=O)[C@@H](NC(=O)[C@H](Cc1ccccc1)NC(=O)[C@@H](NC(=O)CNC(=O)[C@H](CCC(=O)O)NC(=O)C(C)(C)NC(=O)[C@@H](N)Cc1ccc(O)cc1)[C@@H](C)O)[C@@H](C)O)C(=O)N[C@@H](Cc1ccc(O)cc1)C(=O)N[C@@H](CC(C)C)C(=O)N[C@@H](CC(=O)O)C(=O)N[C@@H](CCCCN)C(=O)N[C@@H](CCCCN)C(=O)N[C@@H](C)C(=O)N[C@@H](C)C(=O)N[C@@H](Cc1c[nH]cn1)C(=O)N[C@@H](CC(=O)O)C(=O)N[C@@H](Cc1ccccc1)C(=O)N[C@H](C(=O)N[C@@H](CCC(=O)O)C(=O)N[C@@H](Cc1c[nH]c2ccccc12)C(=O)N[C@@H](CC(C)C)C(=O)N[C@@H](CC(C)C)C(=O)N[C@@H](CO)C(=O)N[C@@H](C)C(N)=O)C(C)C) [Compound 42]	0.007 nM	0.012 nM
H-Y[Aib]EGTFTSDYSKYLDSK([γGlu-Palmitoyl])AAHDFVEWLLSA-NH2 (SMILES CCCCCCCCCCCCCCCC(=O)N[C@@H](CCC(=O)NCCCC[C@H](NC(=O)[C@H](CO)NC(=O)[C@H](CC(=O)O)NC(=O)[C@H](CC(C)C)NC(=O)[C@H](Cc1ccc(O)cc1)NC(=O)[C@H](CCCCN)NC(=O)[C@H](CO)NC(=O)[C@H](Cc1ccc(O)cc1)NC(=O)[C@H](CC(=O)O)NC(=O)[C@H](CO)NC(=O)[C@@H](NC(=O)[C@H](Cc1ccccc1)NC(=O)[C@@H](NC(=O)CNC(=O)[C@H](CCC(=O)O)NC(=O)C(C)(C)NC(=O)[C@@H](N)Cc1ccc(O)cc1)[C@@H](C)O)[C@@H](C)O)C(=O)N[C@@H](C)C(=O)N[C@@H](C)C(=O)N[C@@H](Cc1c[nH]cn1)C(=O)N[C@@H](CC(=O)O)C(=O)N[C@@H](Cc1ccccc1)C(=O)N[C@H](C(=O)N[C@@H](CCC(=O)O)C(=O)N[C@@H](Cc1c[nH]c2ccccc12)C(=O)N[C@@H](CC(C)C)C(=O)N[C@@H](CC(C)C)C(=O)N[C@@H](CO)C(=O)N[C@@H](C)C(N)=O)C(C)C)C(=O)O) [Compound 45]	0.32 nM	0.11 nM
H-Y[Aib]EGTFTSDYSIYLEKKAAKEFVEWLLSA-NH2 (SMILES CC[C@H](C)[C@H](NC(=O)[C@H](CO)NC(=O)[C@H](Cc1ccc(O)cc1)NC(=O)[C@H](CC(=O)O)NC(=O)[C@H](CO)NC(=O)[C@@H](NC(=O)[C@H](Cc1ccccc1)NC(=O)[C@@H](NC(=O)CNC(=O)[C@H](CCC(=O)O)NC(=O)C(C)(C)NC(=O)[C@@H](N)Cc1ccc(O)cc1)[C@@H](C)O)[C@@H](C)O)C(=O)N[C@@H](Cc1ccc(O)cc1)C(=O)N[C@@H](CC(C)C)C(=O)N[C@@H](CCC(=O)O)C(=O)N[C@@H](CCCCN)C(=O)N[C@@H](CCCCN)C(=O)N[C@@H](C)C(=O)N[C@@H](C)C(=O)N[C@@H](CCCCN)C(=O)N[C@@H](CCC(=O)O)C(=O)N[C@@H](Cc1ccccc1)C(=O)N[C@H](C(=O)N[C@@H](CCC(=O)O)C(=O)N[C@@H](Cc1c[nH]c2ccccc12)C(=O)N[C@@H](CC(C)C)C(=O)N[C@@H](CC(C)C)C(=O)N[C@@H](CO)C(=O)N[C@@H](C)C(N)=O)C(C)C) [Compound 43]	0.0091 nM	0.017 nM

The remaining lines, values ahead:

EC50, cAMP induction in HEK293 cells expressing human GIP R [1]	EC50, cAMP induction in HEK293 cells expressing human GLP-1 R [2]	Binder
0.092 nM	0.049 nM	H-Y[Aib]EGTFTSDYSKYLDEK([γGlu-Palmitoyl])AAKDFIEWLESA-NH2 (SMILES CCCCCCCCCCCCCCCC(=O)N[C@@H](CCC(=O)NCCCC[C@H](NC(=O)[C@H](CCC(=O)O)NC(=O)[C@H](CC(=O)O)NC(=O)[C@H](CC(C)C)NC(=O)[C@H](Cc1ccc(O)cc1)NC(=O)[C@H](CCCCN)NC(=O)[C@H](CO)NC(=O)[C@H](Cc1ccc(O)cc1)NC(=O)[C@H](CC(=O)O)NC(=O)[C@H](CO)NC(=O)[C@@H](NC(=O)[C@H](Cc1ccccc1)NC(=O)[C@@H](NC(=O)CNC(=O)[C@H](CCC(=O)O)NC(=O)C(C)(C)NC(=O)[C@@H](N)Cc1ccc(O)cc1)[C@@H](C)O)[C@@H](C)O)C(=O)N[C@@H](C)C(=O)N[C@@H](C)C(=O)N[C@@H](CCCCN)C(=O)N[C@@H](CC(=O)O)C(=O)N[C@@H](Cc1ccccc1)C(=O)N[C@H](C(=O)N[C@@H](CCC(=O)O)C(=O)N[C@@H](Cc1c[nH]c2ccccc12)C(=O)N[C@@H](CC(C)C)C(=O)N[C@@H](CCC(=O)O)C(=O)N[C@@H](CO)C(=O)N[C@@H](C)C(N)=O)[C@@H](C)CC)C(=O)O) [Compound 49]
0.088 nM	0.048 nM	H-Y[Aib]EGTFTSDYSIYLEKK([γGlu-Palmitoyl])AAKEFVEWLLSA-NH2 (SMILES CCCCCCCCCCCCCCCC(=O)N[C@@H](CCC(=O)NCCCC[C@H](NC(=O)[C@H](CCCCN)NC(=O)[C@H](CCC(=O)O)NC(=O)[C@H](CC(C)C)NC(=O)[C@H](Cc1ccc(O)cc1)NC(=O)[C@@H](NC(=O)[C@H](CO)NC(=O)[C@H](Cc1ccc(O)cc1)NC(=O)[C@H](CC(=O)O)NC(=O)[C@H](CO)NC(=O)[C@@H](NC(=O)[C@H](Cc1ccccc1)NC(=O)[C@@H](NC(=O)CNC(=O)[C@H](CCC(=O)O)NC(=O)C(C)(C)NC(=O)[C@@H](N)Cc1ccc(O)cc1)[C@@H](C)O)[C@@H](C)O)[C@@H](C)CC)C(=O)N[C@@H](C)C(=O)N[C@@H](C)C(=O)N[C@@H](CCCCN)C(=O)N[C@@H](CCC(=O)O)C(=O)N[C@@H](Cc1ccccc1)C(=O)N[C@H](C(=O)N[C@@H](CCC(=O)O)C(=O)N[C@@H](Cc1c[nH]c2ccccc12)C(=O)N[C@@H](CC(C)C)C(=O)N[C@@H](CC(C)C)C(=O)N[C@@H](CO)C(=O)N[C@@H](C)C(N)=O)C(C)C)C(=O)O) [Compound 46]
0.061 nM	0.041 nM	H-Y[Aib]EGTFTSDYSIYLDEK([γGlu-Palmitoyl])AAKDFVEWLESA-NH2 (SMILES CCCCCCCCCCCCCCCC(=O)N[C@@H](CCC(=O)NCCCC[C@H](NC(=O)[C@H](CCC(=O)O)NC(=O)[C@H](CC(=O)O)NC(=O)[C@H](CC(C)C)NC(=O)[C@H](Cc1ccc(O)cc1)NC(=O)[C@@H](NC(=O)[C@H](CO)NC(=O)[C@H](Cc1ccc(O)cc1)NC(=O)[C@H](CC(=O)O)NC(=O)[C@H](CO)NC(=O)[C@@H](NC(=O)[C@H](Cc1ccccc1)NC(=O)[C@@H](NC(=O)CNC(=O)[C@H](CCC(=O)O)NC(=O)C(C)(C)NC(=O)[C@@H](N)Cc1ccc(O)cc1)[C@@H](C)O)[C@@H](C)O)[C@@H](C)CC)C(=O)N[C@@H](C)C(=O)N[C@@H](C)C(=O)N[C@@H](CCCCN)C(=O)N[C@@H](CC(=O)O)C(=O)N[C@@H](Cc1ccccc1)C(=O)N[C@H](C(=O)N[C@@H](CCC(=O)O)C(=O)N[C@@H](Cc1c[nH]c2ccccc12)C(=O)N[C@@H](CC(C)C)C(=O)N[C@@H](CCC(=O)O)C(=O)N[C@@H](CO)C(=O)N[C@@H](C)C(N)=O)C(C)C)C(=O)O) [Compound 48]
0.096 nM	0.14 nM	H-Y[Aib]EGTFTSDYSIYLDSK([γGlu-Palmitoyl])AAHDFVEWLLRA-NH2 (SMILES CCCCCCCCCCCCCCCC(=O)N[C@@H](CCC(=O)NCCCC[C@H](NC(=O)[C@H](CO)NC(=O)[C@H](CC(=O)O)NC(=O)[C@H](CC(C)C)NC(=O)[C@H](Cc1ccc(O)cc1)NC(=O)[C@@H](NC(=O)[C@H](CO)NC(=O)[C@H](Cc1ccc(O)cc1)NC(=O)[C@H](CC(=O)O)NC(=O)[C@H](CO)NC(=O)[C@@H](NC(=O)[C@H](Cc1ccccc1)NC(=O)[C@@H](NC(=O)CNC(=O)[C@H](CCC(=O)O)NC(=O)C(C)(C)NC(=O)[C@@H](N)Cc1ccc(O)cc1)[C@@H](C)O)[C@@H](C)O)[C@@H](C)CC)C(=O)N[C@@H](C)C(=O)N[C@@H](C)C(=O)N[C@@H](Cc1c[nH]cn1)C(=O)N[C@@H](CC(=O)O)C(=O)N[C@@H](Cc1ccccc1)C(=O)N[C@H](C(=O)N[C@@H](CCC(=O)O)C(=O)N[C@@H](Cc1c[nH]c2ccccc12)C(=O)N[C@@H](CC(C)C)C(=O)N[C@@H](CC(C)C)C(=O)N[C@@H](CCCNC(=N)N)C(=O)N[C@@H](C)C(N)=O)C(C)C)C(=O)O) [Compound 47]
